Assay results: US11702666B2, “Cell-based assay for determining activity in the retinoblastoma pathway” (Medical Diagnostic Laboratories, LLC, priority 2017, dated 2023)
Positions count from the first letter of the chain named. Numbers in names are those of the source. Entries after “also recorded” stand apart in the source; their conditions may differ. Each block holds one molecule with its values, some of them ahead of it.

Legend:
[1] = tested on: Rb/E2F1-Dp-1 complex; assay: CDK6 mutant activity / drug resistance in NanoBiT assay, stable cell line #11; type: cell-based, human; conditions: for Luc. activity (/wt): relative to WT; for Luc activity (/wt): CDK6 mutants, compared to the WT (being 100%)
Method: A linear expression cassette of mutated CDK4 or CDK6 was generated by PCR mediated overlapping extension method. A pair of forward and reverse primers containing the targeted mutations was designed. The mutated codon was located in the middle of a primer flanked by 18-21 nucleotides on each side. Two PCRs (named as PCR #1 and PCR #2 in FIG. 1) were performed using UF-CMV forward and mutated reverse primers, or mutated forward and BGH-UR primers. The PCR products were cleaned up by ExoSAP-IT® (Affymetrix) to remove unconsumed dNTPs and primers. The treated PCR products were mixed together followed by dilution with water. A second round of PCR was performed using the diluted PCR mixture, and the UF and UR primers (FIG. 1). The amplified products were gel-purified. The DNA concentration was quantitated by the optical density at 260 nm using Nanodrop. The targeted mutations were incorporated in the CDK4 or CDK6 genes during the PCR mediated overlapping extension method. The introduced mutations were confirmed by the DNA sequencing.
To examine the ability of the assay to detect variants in CDK4 or CDK6 that affect function, kinase dead mutants and COSMIC (Catalogue Of Somatic Mutations in cancer) unknown mutants were created. For comparison, hyperactive CDK4 or CDK6 mutants known to be hyperactive due to less binding to natural inhibitor p16 were also created. The mutations in CDK4 or CDK6 were created by site-directed mutagenesis. WT or mutated CDK4 or CDK6 along with the CyclinD1 and SB-Rb were co-transfected, under similar conditions as previously indicated (see FIG. 9).
Computer modeling was used to reveal the drug-binding pocket and predict drug-resistant mutants. The mutations in CDK4 and CDK6 were created by site-directed mutagenesis. WT or mutated CDK4 or CDK6 along with the CyclinD1 and SB-Rb was co-transfected into #11 cell line, under the same conditions as previously indicated. […] Dose response curves are presented on FIG. 13A and FIG. 13B. Activity of other mutants was very similar to the WT or KD.
CDK4 and CDK6 mutants with known function and unknown function taken from the COSMIC database were analyzed in the present assay and are summarized in Table 7A and Table 7B. The mutants were classified according to their activity. Table 7A and Table 7B also show the number of counts per mutant in the COSMIC database, type of cancer, and luciferase activity compared to the WT (being 100%).

[2] = biological target: T1, CDK4 (Homo sapiens, UniProt P11802); assay: p16 activity assay with CDK4 (NanoBiT, cell line #11); type: cell-based; conditions: for signal of p16 mutant (in words): loss of function mutants; for Observed function: p16 (CDKN2A) mutants, with CDK4
T1 construct: expressed in transfected cells; host or cells: HEK293 CDK4/CDK6 double-knockout cells stably expressing E2F1-Dp-1-LB (clone #11); early experiments in plain HEK293
Source text: (§1) We developed an assay that could measure the interaction between Rb, E2F1 and Dp-1. When the Rb and E2F1 proteins are in close proximity or in complex, a light signal is observed. For the purpose of the assay, split-luciferase complementation was used to measure the interaction between Rb and E2F1, which served as a surrogate measure of CDK4/6 activity and the ability of CDK4/6 to respond to the natural inhibitor p16. The NanoBiT assay system by Promega (Madison, Wis.; Dixon et al., 2015, ACS ChemBiol) was used in the split luciferase complementation design. FIG. 24 depicts a design of a signal system to measure p16 activity. Under basal conditions inside the cell, Rb is active and interacts with the E2F1/Dp-1 heterodimer. However, in the presence of the CDK4 or CDK6, Rb gets phosphorylated and released from the interacting complex. In the presence of the natural inhibitor p16, CDK4/6 is no longer available to phosphorylate Rb and thus promoting the Rb/E2F1-Dp-1 complex formation.
For the purpose of the current assay, the stable cell line #11 that we generated for the CDK activity assay was used and described above. HEK293 CDK DKO cells containing E2F1-Dp-1-LB was transiently transfected with CDK4/CDK6, CyclinD1, and SB-Rb. The transfected cells were then exposed to the natural inhibitor p16 (FIG. 25). When CDK4 or CDK6 is present, a decrease in activity was observed as Rb gets phosphorylated resulting in no Rb/E2F1-Dp-1 interaction. […] The data presented was a sample experiment where each condition was performed in triplicate and represented mean+SD.
The conditions of the assay were optimized by using different p16 amounts and cell numbers (FIGS. 25A and 25B). Based on the data generated, it was decided that using 0.2×10^6 cells/ml and 10 ng of p16 would be preferable.
To examine the ability of the assay to detect variants in CDKN2A that affect function, known loss of function mutants and unknown COSMIC mutants were created. Wild-type or mutated CDKN2A were prepared in a manner similar to that previously indicated. […] Therefore the p16 activity assay is capable of determining the relative activity level of p16 mutants. The data provided is in Luminescence (RLU) of a single experiment with each condition performed in triplicate and represent average+SD. Summary Table 13 reports p16 mutants tested.
In addition to check functional state of p16 mutants, p16 activity assay can be used to look at p16 inhibition response of different CDK4 and CDK6 mutants. Different response of WT CDK4 and CDK6 and hyperactive mutants of CDK4 (R24A) and CDK6 (R31C) is shown on FIG. 28. […] The p16 activity assay is so sensitive and specific that hyperactive CDK4 and CDK6 mutants can show different response to mutant p16.

[3] = biological target: T2, CDK6 (Homo sapiens, UniProt Q00534); assay: p16 activity assay with CDK6 (NanoBiT, cell line #11); type: cell-based; conditions: CDK6, CyclinD1, SB-Rb transfected cell line #11
T2 construct: expressed in transfected cells; host or cells: HEK293 CDK4/CDK6 double-knockout cells stably expressing E2F1-Dp-1-LB (clone #11); early experiments in plain HEK293
Source text: as §1
For the purpose of the current assay, the stable cell line #11 that we generated for the CDK activity assay was used and described above. HEK293 CDK DKO cells containing E2F1-Dp-1-LB was transiently transfected with CDK4/CDK6, CyclinD1, and SB-Rb. The transfected cells were then exposed to the natural inhibitor p16 (FIG. 25). […]

[4] = tested on: Rb/E2F1-Dp-1 complex; conditions: CDK4 mutants, literature ref.; Hyper = hyperactive, KD = kinase dead; cited from earlier work
[5] = tested on: Rb/E2F1-Dp-1 complex; assay: CDK4 mutant activity / drug resistance in NanoBiT assay, stable cell line #11; type: cell-based, human; conditions: CDK4 mutants, compared to the WT (being 100%)
Outline: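 Wild-type or mutant CDK4/CDK6, made by overlap-extension PCR site-directed mutagenesis and sequence-confirmed, was co-transfected with CyclinD1 and SB-Rb into stable NanoBiT line #11. Loss of Rb phosphorylation raises luminescence; activity expressed as luciferase signal relative to WT (100%), with drug dose-response curves for predicted resistance mutants.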

[6] = tested on: CDK4; conditions: p16 (CDKN2A) mutants; cited from earlier work
[7] = predicted drug resistant CDK6 mutants

T1 sequence (P11802 2-303): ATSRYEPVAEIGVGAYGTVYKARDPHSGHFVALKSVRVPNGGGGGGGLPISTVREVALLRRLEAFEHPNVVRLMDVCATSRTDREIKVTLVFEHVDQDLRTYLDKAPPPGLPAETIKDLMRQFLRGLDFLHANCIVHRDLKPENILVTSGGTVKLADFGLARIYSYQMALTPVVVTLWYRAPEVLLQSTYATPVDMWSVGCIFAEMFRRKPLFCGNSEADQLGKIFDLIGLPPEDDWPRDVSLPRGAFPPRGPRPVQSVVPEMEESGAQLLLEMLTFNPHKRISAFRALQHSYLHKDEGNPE
T2 sequence (Q00534 whole entry): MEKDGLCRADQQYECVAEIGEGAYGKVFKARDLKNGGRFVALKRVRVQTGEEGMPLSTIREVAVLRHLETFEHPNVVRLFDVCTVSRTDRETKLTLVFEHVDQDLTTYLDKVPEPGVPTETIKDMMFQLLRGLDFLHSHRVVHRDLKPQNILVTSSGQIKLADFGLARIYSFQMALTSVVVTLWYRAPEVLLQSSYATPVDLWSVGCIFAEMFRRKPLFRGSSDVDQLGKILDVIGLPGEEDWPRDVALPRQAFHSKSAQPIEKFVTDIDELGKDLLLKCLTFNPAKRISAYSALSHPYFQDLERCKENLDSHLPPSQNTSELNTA

Molecule: CDK6 V27A: predicted drug resistant CDK6 mutant
Luc. activity (/wt) [1, 7]: 149%

Molecule: CDK6 H100Y: predicted drug resistant CDK6 mutant
Luc. activity (/wt) [1, 7]: 126%

luminescence with treatment of p16 ([2]; CDK4, CyclinD1, SB-Rb transfected cell line #11): increase in luminescence
luminescence with treatment of p16 [3]: increase in luminescence
Molecule: p16: cyclin-dependent kinase inhibitor 2A, natural inhibitor of CDK4 and CDK6, encoded by CDKN2A

Molecule: CDK6 D163N: CDK6 mutant, literature kinase dead
Luc activity (/wt) [1]: 408%

Molecule: CDK6 L152V: predicted drug resistant CDK6 mutant
Luc. activity (/wt) [1, 7]: 114%

Molecule: CDK6 K43M: CDK6 mutant, literature kinase dead
Luc activity (/wt) [1]: 468%

Molecule: CDK6 R220S: CDK6 mutant from COSMIC database
Luc activity (/wt) [1]: 271%

Molecule: CDK6 A41V: predicted drug resistant CDK6 mutant
Luc. activity (/wt) [1, 7]: 132%

Molecule: CDK6 T107K: predicted drug resistant CDK6 mutant
Luc. activity (/wt) [1, 7]: 95%
Observed drug resist. ([1]; predicted drug resistant CDK6 mutants, Palbociclib/Ribociclib): showed drug resistance; also recorded: Resistant

Molecule: CDK6 R144H: CDK6 mutant from COSMIC database
Luc activity (/wt) [1]: 267%

Molecule: CDK6 P199L: CDK6 mutant from COSMIC database
Luc activity (/wt) [1]: 565%

Molecule: CDK6 D104N: predicted drug resistant CDK6 mutant
Luc. activity (/wt) [1, 7]: 138%

Molecule: CDK6 F98I: predicted drug resistant CDK6 mutant
Luc. activity (/wt) [1, 7]: 176%

Molecule: CDK6 I19L: predicted drug resistant CDK6 mutant
Luc. activity (/wt) [1, 7]: 129%

Molecule: CDK6 R220C: CDK6 mutant from COSMIC database
Luc activity (/wt) [1]: 164%

B1: CDK4 K22A: CDK4 mutant, literature hyperactive (protein, UniProt P11802 2-303, looked up, variant K22A)
Cyclin-dependent kinase 4: ATSRYEPVAEIGVGAYGTVYAARDPHSGHFVALKSVRVPNGGGGGGGLPISTVREVALLRRLEAFEHPNVVRLMDVCATSRTDREIKVTLVFEHVDQDLRTYLDKAPPPGLPAETIKDLMRQFLRGLDFLHANCIVHRDLKPENILVTSGGTVKLADFGLARIYSYQMALTPVVVTLWYRAPEVLLQSTYATPVDMWSVGCIFAEMFRRKPLFCGNSEADQLGKIFDLIGLPPEDDWPRDVSLPRGAFPPRGPRPVQSVVPEMEESGAQLLLEMLTFNPHKRISAFRALQHSYLHKDEGNPE
Reported activity [4]: Hyper
Luc. activity (/wt) [5]: 67.5%

signal of p16 mutant (in words) [2]: close to the baseline
B2: p16 A20P: p16 (CDKN2A) mutant (protein)
chain: MEPAAGSSMEPSADWLATAPARGRVEEVRALLEAGALPNAPNSYGRRPIQVMMMGSARVAELLLLHGAEPNCADPATLTRPVHDAAREGFLDTLVVLHRAGARLDVRDAWGRLPVDLAEELGHRDVARYLRAAAGGTRGSNHARIDAAEGPSDIPD

signal of p16 mutant (in words) [2]: close to the baseline
B3: p16 H83Y: p16 (CDKN2A) mutant (protein)
chain: B2 chain with P20A, H83Y

Observed function [2]: Normal
B4: p16 D108N: p16 (CDKN2A) mutant (protein)
chain: B2 chain with P20A, D108N

Observed function [2]: Normal
B5: p16 D14G: p16 (CDKN2A) mutant (protein)
chain: B2 chain with D14G, P20A

Observed function [2]: Normal
B6: p16 R144C: p16 (CDKN2A) mutant (protein)
chain: B2 chain with P20A, R144C
Literature reported function [6]: Normal

Observed function [2]: Reduced
B7: p16 G101W: p16 (CDKN2A) mutant (protein)
chain: B2 chain with P20A, G101W

Observed function [2]: Normal
B8: p16 S56N: p16 (CDKN2A) mutant (protein)
chain: B2 chain with P20A, S56N

signal of p16 mutant (in words) [2]: close to the baseline
B9: p16 V126D: p16 (CDKN2A) mutant (protein)
chain: B2 chain with P20A, V126D

signal of p16 mutant (in words) [2]: close to the baseline
B10: p16 P114L: p16 (CDKN2A) mutant (protein)
chain: B2 chain with P20A, P114L

Observed function [2]: Normal
B11: p16 A36G: p16 (CDKN2A) mutant (protein)
chain: B2 chain with P20A, A36G

Observed function [2]: Normal
B12: p16 A148T: p16 (CDKN2A) mutant (protein)
chain: B2 chain with P20A, A148T
Literature reported function [6]: Normal
